Test results as given in PMC4848734, “Purification and Characterization of a Novel Intracellular Sucrase Enzyme of Leishmania donovani Promastigotes” (Biochemistry Research International, 2016).

What was measured:
[1] = biological target: intracellular sucrase of Leishmania donovani promastigotes (Leishmania donovani (endogenous in promastigotes, strain MOHM/IN/1978/UR6)); test: SEC; Sephacryl S-200 column (120 x 1 cm), Buffer A (50 mM Tris-HCl, pH 7.4), 22 mL/hr; ammonium sulfate fraction of cell-free extract, sucrase followed by activity; native size from calibration graph compared with the subunit size in 10% SDS-PAGE
intracellular sucrase = test system: T1, intracellular sucrase; test: colorimetric glucose release ([…] nm), Lineweaver-Burk; type: biochemical, Leishmania donovani; settings: 50 mM sodium acetate, pH 6.0, 30°C, 30 min; 0.4-5.0 mM sucrose; purified enzyme
T1 construct: native purification from promastigote cell-free extract; ~56 kDa subunit (SDS-PAGE), ~112 kDa native, proposed homodimer; gene not identified

Row | stoichiometry N [1] | Compound | Km (intracellular sucrase)
1 | 2 | intracellular sucrase of Leishmania donovani promastigotes (enzyme) | 
2 |  | OC[C@H]1O[C@@](CO)(O[C@H]2O[C@H](CO)[C@@H](O)[C@H](O)[C@H]2O)[C@@H](O)[C@@H]1O [sucrose] | 1610 µM
